Patent US20240043540A1 (Innovent, published 2024)

What was measured:
[1] = biological target: T1, recombinant cynomolgus monkey B7H3 protein (cynomolgus monkey, UniProt Q7TPB4 26-248 (rat entry)); test: bio-layer interferometry (ForteBio), hybridoma antibody
T1 construct: also called SINO BIOLOGICAL Catalog No. 90806-C02H-50
T1 chain: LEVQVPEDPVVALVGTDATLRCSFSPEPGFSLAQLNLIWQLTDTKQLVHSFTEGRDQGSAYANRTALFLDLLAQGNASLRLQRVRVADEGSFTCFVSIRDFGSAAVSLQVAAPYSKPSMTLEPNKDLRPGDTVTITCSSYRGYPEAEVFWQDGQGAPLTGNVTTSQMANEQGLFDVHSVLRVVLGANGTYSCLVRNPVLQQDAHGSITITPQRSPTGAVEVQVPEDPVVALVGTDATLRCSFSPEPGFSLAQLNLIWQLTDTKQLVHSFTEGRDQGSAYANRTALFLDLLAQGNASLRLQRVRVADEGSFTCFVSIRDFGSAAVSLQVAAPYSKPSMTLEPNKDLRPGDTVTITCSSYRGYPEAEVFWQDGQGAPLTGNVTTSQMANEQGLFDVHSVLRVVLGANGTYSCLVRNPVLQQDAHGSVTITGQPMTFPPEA

[2] = biological target: T2, recombinant human 4Ig-B7H3 protein (human, UniProt Q5ZPR3 29-461); test: as above
T2 construct: also called human B7H3 protein; SINO BIOLOGICAL Catalog No. 11188-H08H
T2 sequence: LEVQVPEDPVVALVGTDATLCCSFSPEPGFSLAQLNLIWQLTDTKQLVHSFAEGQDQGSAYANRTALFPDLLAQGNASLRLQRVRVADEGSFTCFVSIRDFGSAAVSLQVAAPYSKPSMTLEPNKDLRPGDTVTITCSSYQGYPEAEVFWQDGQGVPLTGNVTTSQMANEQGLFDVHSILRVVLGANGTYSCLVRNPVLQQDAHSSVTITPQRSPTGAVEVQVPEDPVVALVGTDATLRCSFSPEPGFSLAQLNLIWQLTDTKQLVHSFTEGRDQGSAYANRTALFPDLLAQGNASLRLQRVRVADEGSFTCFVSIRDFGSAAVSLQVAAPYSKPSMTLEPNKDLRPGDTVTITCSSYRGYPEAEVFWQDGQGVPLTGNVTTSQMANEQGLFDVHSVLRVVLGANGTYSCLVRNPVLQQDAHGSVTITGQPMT

[3] = biological target: T3, cynomolgus monkey B7H3 expressed on CHO cells (CHO-cynoB7H3) (cynomolgus monkey, UniProt Q7TPB4 26-316 (rat entry)); test: flow cytometry, hybridoma supernatant on CHO-cynoB7H3 cells
T3 chain: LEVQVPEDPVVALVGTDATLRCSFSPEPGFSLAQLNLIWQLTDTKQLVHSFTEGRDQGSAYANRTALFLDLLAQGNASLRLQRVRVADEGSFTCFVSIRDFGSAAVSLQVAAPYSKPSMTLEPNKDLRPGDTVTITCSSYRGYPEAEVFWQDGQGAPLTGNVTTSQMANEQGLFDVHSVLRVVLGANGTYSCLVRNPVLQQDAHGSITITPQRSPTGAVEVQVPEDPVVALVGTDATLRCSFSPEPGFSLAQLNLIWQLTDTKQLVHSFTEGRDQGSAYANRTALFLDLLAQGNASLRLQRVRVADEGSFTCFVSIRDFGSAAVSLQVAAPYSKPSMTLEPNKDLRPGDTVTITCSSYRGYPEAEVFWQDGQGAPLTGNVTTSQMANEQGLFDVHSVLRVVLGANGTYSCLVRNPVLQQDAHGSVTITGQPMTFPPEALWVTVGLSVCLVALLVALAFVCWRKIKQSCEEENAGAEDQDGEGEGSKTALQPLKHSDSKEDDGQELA

B1: 20G5 (hybridoma clone antibody) (antibody, V domains shown)
VH: EVQLQQSVPELVKPGASVKISCKTSGYTFTEYIMHWVKQSHGKNLEWIGGINPNNGGTTYNQKFKDKATLTVDKSSSTAYMELHNLTSEDSAVYYCTRRTPPWHFAVWGAGTSLTVSS
VL: DIVLTQSPTIMSASPGEKVTMTCSASSSVSYIHWYQQKSGTSPKRWIFDTSRLASGVPARFSGSGSGTSYSLTISSMEAEDAATYYCQQWSSAPLTFGTGTTLELK
[1]
  Kd: 590 pM
[2]
  Kd: 362 pM
[3]
  binding result: binds
